Results taken from patent US20220259301A1.
Values belong to the molecule of their own block, whether it stands above or below them.

Molecular target: human IL-23 (human) (UniProt Q9NPF7)
UniProt Q9NPF7, sequence (Q9NPF7 20-189, chain 1 of 2): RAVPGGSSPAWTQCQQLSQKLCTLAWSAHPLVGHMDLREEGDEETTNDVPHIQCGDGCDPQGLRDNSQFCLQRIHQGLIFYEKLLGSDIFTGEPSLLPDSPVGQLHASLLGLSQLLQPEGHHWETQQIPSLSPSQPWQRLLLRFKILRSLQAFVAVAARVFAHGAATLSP
UniProt Q9NPF7, sequence (chain, as listed by the source, chain 2 of 2): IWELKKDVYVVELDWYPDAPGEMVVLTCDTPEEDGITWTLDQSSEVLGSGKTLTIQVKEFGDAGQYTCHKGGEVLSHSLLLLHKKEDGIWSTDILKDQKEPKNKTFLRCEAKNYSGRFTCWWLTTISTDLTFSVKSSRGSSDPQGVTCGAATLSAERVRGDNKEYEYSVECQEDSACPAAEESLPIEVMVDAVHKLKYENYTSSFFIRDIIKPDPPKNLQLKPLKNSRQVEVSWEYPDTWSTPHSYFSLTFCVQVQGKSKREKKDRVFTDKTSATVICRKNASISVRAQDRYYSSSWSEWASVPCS

IL-23 stimulated IL-17 production: 167 pM
Molecule: ustekinumab (antibody)

IL-23 stimulated IL-17 production: < 10 pM
B1: Risankizumab (antibody, V domains shown)
VH: QVQLVQSGAEVKKPGSSVKVSCKASGYTFTDQTIHWMRQAPGQGLEWIGYIYPRDDSPKYNENFKGKVTITADKSTSTAYMELSSLRSEDTAVYYCAIPDRSGYAWFIYWGQGTLVTVSS
VL: DIQMTQSPSSLSASVGDRVTITCKASRDVAIAVAWYQQKPGKVPKLLIYWASTRHTGVPSRFSGSGSRTDFTLTISSLQPEDVADYFCHQYSSYPFTFGSGTKLEIKR
